From doi:10.1101/2023.07.07.547762

Molecular target: NES-Venus-miniGs
Experiment: BRET (NanoLuc-labelled receptor and Venus-labelled mini-Gs recruitment)
Conditions: three independent experiments; for percent of parent: Emax of the DMCH concentration-response; for other: pEC50: pEC50 of the agonist DMCH for mini-Gs recruitment

Substance	percent of parent [%]	other: pEC50
mTAAR7f with N-terminal twin-strep tag and SNAP-tag and C-terminal nanoluc (wild type) (from UniProt Q5QD08) C131A	60	4.9
mTAAR7f with N-terminal twin-strep tag and SNAP-tag and C-terminal nanoluc (wild type) (from UniProt Q5QD08) D127A	0	–
mTAAR7f with N-terminal twin-strep tag and SNAP-tag and C-terminal nanoluc (wild type) (from UniProt Q5QD08) W286Y	24	5.3
mTAAR7f with N-terminal twin-strep tag and SNAP-tag and C-terminal nanoluc (wild type) (from UniProt Q5QD08) Y132A	17	3.6

Second part, the substance after the results:

percent of parent [%]	other: pEC50	Substance
0	–	mTAAR7f with N-terminal twin-strep tag and SNAP-tag and C-terminal nanoluc (wild type) (from UniProt Q5QD08) V315A
47	4.2	mTAAR7f with N-terminal twin-strep tag and SNAP-tag and C-terminal nanoluc (wild type) (from UniProt Q5QD08) Y289A
